According to patent US20220213181A1 (Novartis, published 2022):
Positions count from the first letter of the chain named.

T1: Human ANGPTL3(17-460)-FLAG-His-Avi (human, UniProt Q9Y5C1 17-460, biotin on the C-terminal Avi tag (BirA))
T1 construct: also called full length human ANGPTL3; hANGPTL3
T1 sequence: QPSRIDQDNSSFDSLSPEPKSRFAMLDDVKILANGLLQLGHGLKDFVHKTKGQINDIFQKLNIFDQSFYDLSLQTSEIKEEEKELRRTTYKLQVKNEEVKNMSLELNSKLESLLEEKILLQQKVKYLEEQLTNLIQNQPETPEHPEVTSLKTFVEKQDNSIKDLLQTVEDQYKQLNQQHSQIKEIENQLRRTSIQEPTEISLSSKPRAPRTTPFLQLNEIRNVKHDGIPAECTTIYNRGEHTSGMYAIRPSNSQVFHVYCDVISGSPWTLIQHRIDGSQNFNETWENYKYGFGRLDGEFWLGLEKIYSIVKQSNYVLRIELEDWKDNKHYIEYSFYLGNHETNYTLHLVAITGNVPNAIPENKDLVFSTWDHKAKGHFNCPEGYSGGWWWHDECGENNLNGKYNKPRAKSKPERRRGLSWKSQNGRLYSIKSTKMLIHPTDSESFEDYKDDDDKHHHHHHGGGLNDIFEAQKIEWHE

T2: Human ANGPTL4(26-406)-FLAG-His6-Avi (human, UniProt Q9BY76 24-406, biotin on the C-terminal Avi tag (BirA) where the protein is immobilised)
T2 sequence: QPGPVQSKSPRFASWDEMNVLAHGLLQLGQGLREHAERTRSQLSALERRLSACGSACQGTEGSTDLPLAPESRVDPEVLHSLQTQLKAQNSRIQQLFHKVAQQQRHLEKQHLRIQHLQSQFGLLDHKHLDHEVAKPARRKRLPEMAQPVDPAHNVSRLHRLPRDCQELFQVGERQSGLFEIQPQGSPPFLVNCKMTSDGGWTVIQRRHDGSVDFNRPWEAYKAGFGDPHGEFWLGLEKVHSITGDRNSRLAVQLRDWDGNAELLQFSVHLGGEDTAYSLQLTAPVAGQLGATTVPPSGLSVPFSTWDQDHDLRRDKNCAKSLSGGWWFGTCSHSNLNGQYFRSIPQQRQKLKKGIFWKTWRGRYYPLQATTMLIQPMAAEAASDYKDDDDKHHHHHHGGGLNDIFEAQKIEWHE

B1: NEG276 (antibody, human IgG1, kappa)
heavy: not shown
light: EIVMTQSPATLSVSPGERATLSCKASQDIGSNLNWLQQKPGQAPRRLIYAVSNRGPGIPARFSGSRSGSEYTLTISSLQSEDFAVYYCLQYASSPWTFGQGTKVEIKRTVAAPSVFIFPPSDEQLKSGTASVVCLLNNFYPREAKVQWKVDNALQSGNSQESVTEQDSKDSTYSLSSTLTLSKADYEKHKVYACEVTHQGLSSPVTKSFNRGEC
notes: humanized, hIgG1/kappa, parental antibody 19C16
B2: NEG278 (antibody, human IgG1, kappa, V domains shown)
VH: QVQLVQSGAEVKKPGASVKVSCKASAYTFTSSWMQWVRQAPGQGLEWMGEIDPSDNYANYNQKFQGRVTLTVDTSTSTAYMELSSLRSEDTAVYYCASGSYFSNFFDYWGQGTLVTVSS
VL: EIVMTQSPATLSVSPGERATLSCKASQDIGSNLNWLQQKPGQAPRRLIYAASVREPGIPARFSGSRSGSEYTLTISSLQSEDFAVYYCLQYASSPWTFGQGTKVEIKR
notes: as for B1
B3: NEG310 (antibody, human IgG1, kappa, V domains shown)
VH: QVQLVQSGAEVKKPGASVKVSCKASGYTFTSYTMHWVRQAPGQGLEWMGYINPSSGYTKYNQKFQGRVTMTADKSTSTAYMELSSLRSEDTAVYYCAEGWLLLAMDYWGQGTLVTVSS
VL: EAVVTQSPATLSLSPGERATLSCRSSTGAVTTSNYAIWVQEKPGQAPRGLIGGTNNRAPGIPARFSGSLSGDDATLTISSLQPEDFAVYFCALWYSDHWVFGQGTKVEIKR
notes: humanized, hIgG1/kappa, parental antibody 17B1
B4: NEG315 (antibody, human IgG1, kappa, V domains shown)
VH: QVQLVQSGAEVKKPGASVKVSCKASGYTFTNYWITWVRQAPGQGLEWMGDFYPGGGNTNYNAKLQGRVTLTVDTSTSTAYMELRSLRSDDTAVYYCARSPPQVAPFDYWGQGTLVTVSS
VL: DIQMTQSPSSLSASVGDRVTITCQASEYIYNWLGWYQQKPGKAPKLLISGASGLETGVPSRFSGSGSGKDYTFTISSLQPEDIATYYCQQYWSTPWTFGQGTKLEIKR
notes: humanized, hIgG1/kappa, parental antibody 37P1
B5: NEG313 (antibody, human IgG1, kappa, V domains shown)
VH: B4 VH with T30N, N57S
VL: B4 VL with E27D, N31H
notes: as for B4
B6: NEG318 (antibody, human IgG1, kappa, V domains shown)
VH: B4 VH with N31S, Y32F, F51I, G56A, N57T, A62E, A104G
VL: B4 VL with E27D, N31H, G34A, G53S, T94I
notes: humanized, hIgG1/kappa, parental antibody 14P18
B7: NEG319 (antibody, human IgG1, kappa, V domains shown)
VH: B4 VH with N31S, Y32F, F51I, G56A, A62E, A104G
VL: B4 VL with Y30I, G34A, S52T, T94I
notes: as for B6
B8: NEG276-LALA (antibody, human IgG1, kappa, L234A L235A)
heavy: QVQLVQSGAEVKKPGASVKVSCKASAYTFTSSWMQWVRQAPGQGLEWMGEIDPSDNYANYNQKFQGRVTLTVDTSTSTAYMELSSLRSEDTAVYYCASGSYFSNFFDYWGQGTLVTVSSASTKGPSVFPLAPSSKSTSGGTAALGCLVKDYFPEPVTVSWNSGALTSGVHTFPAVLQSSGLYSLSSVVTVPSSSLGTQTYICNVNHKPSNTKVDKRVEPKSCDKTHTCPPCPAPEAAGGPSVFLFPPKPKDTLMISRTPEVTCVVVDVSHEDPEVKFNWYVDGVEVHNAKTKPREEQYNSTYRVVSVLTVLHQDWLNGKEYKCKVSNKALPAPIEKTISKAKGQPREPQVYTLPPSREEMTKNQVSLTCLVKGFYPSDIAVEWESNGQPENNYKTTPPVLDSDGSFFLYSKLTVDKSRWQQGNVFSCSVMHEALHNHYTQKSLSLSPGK
light: B1 light

biological target: T1, Human ANGPTL3(17-460)-FLAG-His-Avi; test: direct ELISA on MSD streptavidin plate, biotinylated antigen immobilized at 1 nM, antibody at 1 nM, Sulfo-tagged anti-human IgG detection
Procedure: Direct ELISA assays were conducted to characterize antibody binding specificity of selected antibodies of the invention. The assay was performed as follows. A 384-well streptavidin-coated Meso Scale Discovery (MSD) plate was blocked by incubating the plate with 50 μL Blocking Buffer (PBS, pH 7.4, 5% w/v bovine serum albumin) per well at 22° C. for 1 hour with constant shaking (600 rpm). The blocked MSD plate was then washed 3 times with Wash Buffer (PBS, pH 7.4 and 0.05% v/v Tween-20) using a plate washer (BioTek). Following washing, biotinylated human ANGPTL4 proteins diluted in Assay Buffer (PBS, pH 7.4 without CaCl₂ or MgCl₂, 0.5% w/v fatty acid-free bovine serum albumin and 0.02% v/v Tween-20) were immobilized on the surface by incubation at 1 nM concentration (15 μL per well) at 22° C. for one hour: full length human ANGPTL4 (hANGPTL4), human ANGPTL4 coiled-coil domain (hANGPTL4-CCD) and full length human ANGPTL3 (hANGPTL3). The plate was then washed 3 times as described earlier. Antibody diluted to 1 nM concentration in Assay Buffer was then applied to the MSD plate (15 μL per well), and the plate was incubated for 1 hour at 22° C. with constant shaking (600 rpm). Bound antibodies were detected by adding 15 μL per well of a 1:500 dilution of Sulfo-tagged goat anti-human IgG. The plate was then incubated for one hour with constant shaking (600 rpm). The plate was washed 3 times, and then 15 μL/well of 1× MSD read buffer T was added and the plate was developed using a Sector Imager 6000 (Meso Scale Discovery). The data were transferred to Microsoft Excel for analysis and plotted using GraphPad Prism v6. […] An ANGPTL3-specific reference antibody was used as a positive control for the ANGPTL3 binding assay (FIG. 2).

Binder	binding result
B1	no binding (tested: 1 nM)
B2	no binding (tested: 1 nM)
B3	no binding (tested: 1 nM)
B4	no binding (tested: 1 nM)
B5	no binding (tested: 1 nM)
B6	no binding (tested: 1 nM)
B7	no binding (tested: 1 nM)

biological target: T2, Human ANGPTL4(26-406)-FLAG-His6-Avi; test: cell-based or functional assay

Binder	EC50 of the antibody-mediated increase in lipoprotein lipase enzyme activity (reversal of LPL inhibition by ANGPTL4) [nM]
B1	0.6
B8	0.7
B2	0.7
B3	1.6
B4	3
B5	3
B6	1.4
B7	0.5
